According to patent US6290951A, “Alteration of the cell cycle in vivo, and particularly for inducing apoptosis of tumor cells” (Alfacell Corporation, priority 1998, dated 2001):
Square brackets hold non-standard residues; d marks the D form. Peptide text beside a SMILES is read from it. Nle = CCCC[C@H](N)C(=O)O

Assays:
[1] = test system: DU-145 human prostate carcinoma; assay: MTT assay, DU-145 cells
[2] = test system: HL-60 tumor cells; conditions: proliferating HL-60 tumor cells; background art; cited from earlier work
[3] = test system: proteasome; conditions: Proc Natl Acad Sci USA 94:855-860, 1997; cited from earlier work
[4] = test system: MDA-MB-231 human breast carcinoma; assay: MTT assay, MDA-MB-231 cells
[5] = test system: A-549 human lung carcinoma; assay: MTT assay, A-549 cells
[6] = A-549 cells, 10 μM LLnL with 0.1 to 1.0 μg/mL ranpirnase

Molecule: CC(=O)N[C@@H](CC(=O)O)C(=O)N[C@@H](CCC(=O)O)C(=O)N[C@H](C(=O)N[C@H](C=O)CC(=O)O)C(C)C [Ac-DEVD-cho, N-acetyl-L-aspartyl-L-glutamyl-L-valinyl-L-aspartal, reference compound]
- increase of viability of cells versus LLnL alone ([1]; DU-145 cells treated with LLnL, without ranpirnase, Ac-DEVD-cho 50 μpM): approximately 4 fold
- increase of viability of cells ([1]; DU-145 cells treated with ranpirnase and 25 μpM LLnL, Ac-DEVD-cho 50 μpM): 2- to 3 fold

Molecule: CCCC[C@@H](C=O)NC(=O)[C@H](CC(C)C)NC(=O)[C@H](CC(C)C)NC(C)=O [LLnL, N-acetyl-leucinyl-leucinyl-norleucinal] (Ac-Leu-Leu-[Nle]-aldehyde)
- cell cycle arrest [2]: arrested the HL-60 cells in the G1 phase

Molecule: CSCC[C@@H](C=O)NC(=O)[C@H](CC(C)C)NC(=O)[C@H](CC(C)C)NC(C)=O [LLM, N-acetyl-leucinyl-leucinyl-methioninal, reference compound] (Ac-Leu-Leu-Met-aldehyde)
- inhibition of the activity of proteasome [3]: does not significantly inhibit
- effect on growth and viability versus untreated controls ([4]; MDA-MB-231 cells, 25 μM LLM alone): no significant effect

Molecule: COc1cccc2c1C(=O)c1c(O)c3c(c(O)c1C2=O)C[C@@](O)(C(=O)CO)C[C@@H]3O[C@H]1C[C@H](N)[C@H](O)[C@H](C)O1 [doxorubicin, reference compound]
- effect of adding doxorubicin on cell growth or cell viability ([4]; MDA-MB-231 cells, ranpirnase plus 0.1 μg/mL doxorubicin plus 15 μM LLnL versus ranpirnase plus LLnL): did not significantly decrease

Molecule: CC(=O)N[C@@H](CC(C)C)C(=O)N[C@H](C(=O)N[C@H](C=O)Cc1ccccc1)C(C)C [LVP, N-acetyl-leucinyl-valinyl-phenylalaninal, reference compound]
- augmentation of the anti-tumor activity of ranpirnase ([5]; A-549 cell line, peptide aldehyde added to ranpirnase): augmented
- augmentation of the anti-tumor activity of ranpirnase ([1]; DU-145 cell line, peptide aldehyde added to ranpirnase): augmented

B1: ranpirnase: USAN generic name of the pharmaceutical described in U.S. Pat. No. 5,559,212, known by the registered trademark ONCONASE (protein, UniProt P22069 1-104, looked up)
Protein P-30: QDWLTFQKKHITNTRDVDCDNIMSTNLFHCKDKNTFIYSRPEPVKAICKGIIASKNVLTTSEFYLSDCNVTSRPCKYKLKKSTNKFCVTCENQAPVHFVGVGSC
- interaction of ranpirnase and LLnL ([5]; A-549 cell line): synergistically
- anti-tumor activity of ranpirnase combined with LLnL versus each single agent (Newman-Keuls) ([5]; A-549 cells): significantly greater
- effect of the combination versus ranpirnase alone [5, 6]: greater than the effect of ranpirnase alone
- interaction of ranpirnase and LLnL [5, 6]: not synergistic
- interaction of ranpirnase and LLnL ([5]; A-549 cells, higher concentrations (15 to 35) μM of LLnL): synergistic
- mean ED50 value for ranpirnase ([5]; A-549 cells, in combination with 10 μM LLnL): 1.356 µg/mL
- mean ED50 value for ranpirnase ([5]; A-549 cells, in combination with 15 μM LLnL): 0.640 µg/mL
- mean ED50 value for ranpirnase ([5]; A-549 cells, in combination with 25 μM LLnL): 0.060 µg/mL
- mean ED50 value for ranpirnase ([5]; A-549 cells, in combination with 35 μM LLnL): less than 0.001 μg/mL
- mean ED50 value for ranpirnase ([5]; A-549 cells, ranpirnase alone): 3.944 µg/mL
- interaction of ranpirnase and LLnL ([1]; DU-145 cell line): synergistically
- anti-tumor activity of ranpirnase combined with LLnL versus each single agent (Newman-Keuls) ([1]; DU-145 cells): significantly greater
- interaction of ranpirnase with LLnL ([1]; DU-145 cells, all concentrations of ranpirnase, 10 to 25 μM LLnL): synergistic
- ED50 value for ranpirnase ([1]; DU-145 cells, combined with 10 μM LLnL): 1.231 µg/mL
- ED50 value for ranpirnase ([1]; DU-145 cells, combined with 15 μM LLnL): 0.001 µg/mL
- ED50 value for ranpirnase ([1]; DU-145 cells, combined with 25 μM LLnL): < 0.001 µg/mL
- ED50 value for ranpirnase ([1]; DU-145 cells, ranpirnase alone): 42.276 µg/mL
- interaction of ranpirnase and LLnL ([4]; MDA-MB-231 cell line): synergistically
- anti-tumor activity of ranpirnase combined with LLnL versus each single agent (Newman-Keuls) ([4]; MDA-MB-231 cells): significantly greater
- activity of combination of ranpirnase and LLM versus ranpirnase alone ([4]; MDA-MB-231 cells, 25 μM LLM): no significant difference
- decrease of mean ED50 value for ranpirnase ([4]; MDA-MB-231 cells, additional treatment with 25 μM LLM): approximately two-fold
- decrease of mean ED50 value for ranpirnase versus ranpirnase alone ([4]; MDA-MB-231 cells, in combination with 0.1 μg/mL (approximately 0.17 μM) doxorubicin): 2.2 fold
- mean ED50 value for ranpirnase ([4]; MDA-MB-231 cells, in combination with 10 μM LLnL): 0.037 µg/mL
- mean ED50 value for ranpirnase ([4]; MDA-MB-231 cells, in combination with 15 μM LLnL): 0.022 µg/mL
- mean ED50 value for ranpirnase ([4]; MDA-MB-231 cells, in combination with 25 μM LLnL): 0.001 µg/mL
- interaction of ranpirnase with LLnL ([4]; MDA-MB-231 cells, ranpirnase 0.1 to 10.0 μg/mL, LLnL 5 to 25 μM (particularly 10 to 25 μM)): synergistically
- mean ED50 value for ranpirnase ([4]; MDA-MB-231 cells, ranpirnase alone): 1.434 µg/mL
